The test addresses biotinylated Aβ immobilised for the SPR of CreneFab alanine mutants. As to the kind of experiment: SPR; BIAcore T200, single-cycle kinetics; biotinylated Aβ (11–28 or oligomeric 1–42) captured on streptavidin-coupled CM5 chip (100–200 RU); antibody as analyte 0.8–500 nM in HBS-P pH 7.4, 0.15 M NaCl; one-to-one Langmuir model.

B1: CreneFab Ser52a alanine mutant (Fab, V domains shown)
VH: EVQLVESGGGLVQPGGSLRLSCAASGFTFSSYGMSWVRQAPGKGLELVASINANGGSTYYPDSVKGRFTISRDNAKNSLYLQMNSLRAEDTAVYYCASGDYWGQGTLVTVSS
VL: DIVMTQSPLSLPVTPGEPASISCRSSQSLVYSNGDTYLHWYLQKPGQSPQLLIYKVSNRFSGVPDRFSGSGSGTDFTLKISRVEAEDVGVYYCSQSTHVPWTFGQGTKVEIK
B1 displayed a fold reduction of affinity against wild-type CreneFab of 1.8 fold.

B2: CreneFab with deletion of Glu1^HC and Val2^HC (Fab, V domains shown)
VH: QLVESGGGLVQPGGSLRLSCAASGFTFSSYGMSWVRQAPGKGLELVASINSNGGSTYYPDSVKGRFTISRDNAKNSLYLQMNSLRAEDTAVYYCASGDYWGQGTLVTVSS
VL: B1 VL
As to B2, the fold reduction of affinity against wild-type CreneFab turned out to be 2.6 fold.
